Tests used:
[1] = molecular target: T1, EAiC3b (erythrocytes coated with iC3b) (Homo sapiens, UniProt P01024); assay: Erythrocyte binding assay, EAiC3b on immobilized proteins or peptides; settings: 37° C., divalent cations
T1 construct: EAiC3b (erythrocytes coated with iC3b) were generated by treating EAC3b with purified human factors H and I; tissue Sigma Chemical Co. (C5-deficient human serum); host or cells: human serum C3 deposited on IgM-coated erythrocytes
Method: Erythrocytes (E) coated with rabbit anti-E IgM (EA) or C3b (EAC3b) were prepared as described by Dana et al. (J. Immunol. 73:153, 1984). EAiC3b (erythrocytes coated with iC3b) were generated by treating EAC3b with purified human factors H and I, or alternatively prepared from EA using C5-deficient human serum (Sigma Chemical Co., St. Louis, Mo.). EAiC3b cells were washed and stored in isotonic veronal-buffered saline (VBS^2+), pH 7.4, containing 0.15 mM calcium-1 mM magnesium (MgCl2+CaCl2) and 1 mg/ml Soybean Trypsin Inhibitor (STI; Worthington Biochemical Co., Freehold, N.J.) at 1.5×10^8 cells/ml. EA, EAC3b or EAiC3b were labeled with 5-(and-6)-carboxy fluorescein (Molecular Probes, Eugene, Oreg.) as described by Michishita et al. (Cell 72:857, 1993).
Immobilization of recombinant proteins and peptides: Purified recombinant A-domain was added to Immulon-2 96-well microtiter plates (Dynatech) overnight. Wells were then washed once with phosphate-buffered-saline, pH 7.4 without metals, and blocked with 1% BSA at room temperature (RT) for one hour, followed by two washings with buffer A (composed of 60% GVBS:VBS^2+ mixed in a 1:3 ratio; Arnaout et al., in Complement Receptor Type 3 at 602-615, Academic Press, FL) containing 1 mM MnCl2 or MgCl2+CaCl2. All the peptides were stocked at 1 mg/ml in water and similarly adsorbed to Immulon-2 96-well plates. Binding of the anti-CD11b mabs to the coated rA-domain was measured by ELISA and read using a plate reader (Molecular Dynamics).
Erythrocyte binding assays: Fluoresceinated EAiC3b, EAC3b or EA were resuspended to 1.5×10^8/ml in buffer A, and added […] to wells containing immobilized proteins or peptides in a total volume of […]. The plates were then briefly centrifuged to settle the erythrocytes, and allowed to incubate at 37° C. for 15 minutes in a humidified incubator with 5% CO2. For the inhibition studies, E were preincubated with each recombinant protein or pure peptide in the presence of 2% BSA for 5 minutes at RT and added to wells coated with immobilized protein or peptide without washing, unless otherwise indicated. At the end of the binding reactions, wells were washed, examined briefly by light microscopy then solubilized with 1% SDS-0.2 N NaOH. Fluorescence was quantified (excitatory wavelength, 490 nm, emission wavelength, 510 nm) using a SLM 8000 fluorometer (SLM Instruments, Urbana, Ill.). In experiments where the effects of individual divalent cations were measured, Ca^2+ and Mg^2+ were replaced with metal-free buffers or with buffers containing each cation at […], unless otherwise indicated. The effect of temperature was evaluated in the presence of 1 mM MnCl2 at 37° C. and at 4° C.

[2] = test system: biotinylated NIF binding to human neutrophils; assay: Inhibition of biotinylated NIF binding to neutrophils; settings: dose dependent
Method: 100 μg of rNIF were labeled with sulfo-NHS-Biotin as described above. rNIF binding to resting or stimulated human neutrophils (pretreated with 10^−6 M f-met-leu-phe, for 15 minutes at 37° C., then washed) was measured. Increasing amounts of biotinylated rNIF in the absence or presence of 100-fold molar excess of unlabeled rNIF were incubated on ice for one hour with 1×10^6 neutrophils in VBSG^++ in a total volume of […]. Cells were then washed and incubated with phycoerythrin-coupled avidin (Sigma Chemical Co.) under similar conditions, washed again, fixed in 1% paraformaldehyde in PBS, and analyzed using FACScan (Becton Dickinson Co., Mountain View, Calif.). Mean channel fluorescence for each sample was then expressed as a function of the amount of biotinylated rNIF used. Background binding of phycoerythrin-streptavidin alone to neutrophils was subtracted (2.8 fluorescent units). Specific binding was obtained by […], and the values plotted according to Scatchard (Ann. N.Y. Acad. Sci. 51:660, 1949). To determine the effect of unlabeled fluid-phase-r11bA or GST on rNIF binding to neutrophils, each was preincubated at varying concentrations with biotinylated rNIF (20 ng/ml, final concentration) for 15 minutes on ice before addition of the mixture to neutrophils. The effect of mAbs on biotinylated NIF binding to neutrophils was assessed by preincubating the neutrophils with 100 μg/ml of each mAb at 4° C. for 15 minutes before addition of biotinylated NIF (20 ng/ml). The incubation then continued for one hour, followed by processing of cells for FACS analysis as described below.

T1 sequence (P01024 749-1303 limits assumed): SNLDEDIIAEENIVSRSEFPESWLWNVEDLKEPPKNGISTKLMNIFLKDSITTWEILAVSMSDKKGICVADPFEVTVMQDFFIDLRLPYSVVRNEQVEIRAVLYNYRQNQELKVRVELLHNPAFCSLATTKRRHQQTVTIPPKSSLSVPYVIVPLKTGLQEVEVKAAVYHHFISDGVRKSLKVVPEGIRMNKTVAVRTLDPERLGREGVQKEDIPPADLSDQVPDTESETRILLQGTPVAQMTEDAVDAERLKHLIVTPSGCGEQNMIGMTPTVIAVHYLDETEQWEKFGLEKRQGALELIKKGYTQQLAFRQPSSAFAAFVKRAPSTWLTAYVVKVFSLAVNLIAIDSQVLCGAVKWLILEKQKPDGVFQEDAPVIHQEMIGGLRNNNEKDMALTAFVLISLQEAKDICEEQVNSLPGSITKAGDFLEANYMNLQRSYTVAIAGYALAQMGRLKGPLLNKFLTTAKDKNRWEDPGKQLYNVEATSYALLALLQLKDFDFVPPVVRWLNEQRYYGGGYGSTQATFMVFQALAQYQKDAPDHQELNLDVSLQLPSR
T1 sequence (P01024 23-667 partner limits assumed): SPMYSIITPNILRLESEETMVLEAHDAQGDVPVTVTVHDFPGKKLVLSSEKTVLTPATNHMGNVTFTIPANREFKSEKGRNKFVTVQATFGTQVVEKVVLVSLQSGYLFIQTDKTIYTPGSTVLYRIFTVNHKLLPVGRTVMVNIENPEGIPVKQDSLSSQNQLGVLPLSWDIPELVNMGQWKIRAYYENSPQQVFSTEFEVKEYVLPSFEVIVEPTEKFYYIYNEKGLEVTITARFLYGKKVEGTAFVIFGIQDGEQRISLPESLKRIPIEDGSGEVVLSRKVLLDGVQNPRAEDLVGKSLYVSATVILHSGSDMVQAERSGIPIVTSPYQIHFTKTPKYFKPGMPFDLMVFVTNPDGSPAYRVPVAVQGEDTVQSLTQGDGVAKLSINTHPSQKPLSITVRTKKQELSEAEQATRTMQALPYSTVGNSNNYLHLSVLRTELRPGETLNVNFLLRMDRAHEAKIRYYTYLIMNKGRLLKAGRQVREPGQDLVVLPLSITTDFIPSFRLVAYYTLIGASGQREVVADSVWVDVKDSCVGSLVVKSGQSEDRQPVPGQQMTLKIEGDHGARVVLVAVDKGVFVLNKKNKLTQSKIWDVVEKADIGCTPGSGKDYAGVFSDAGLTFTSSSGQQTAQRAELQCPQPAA
T1 sequence (P01024 1321-1663 partner limits assumed): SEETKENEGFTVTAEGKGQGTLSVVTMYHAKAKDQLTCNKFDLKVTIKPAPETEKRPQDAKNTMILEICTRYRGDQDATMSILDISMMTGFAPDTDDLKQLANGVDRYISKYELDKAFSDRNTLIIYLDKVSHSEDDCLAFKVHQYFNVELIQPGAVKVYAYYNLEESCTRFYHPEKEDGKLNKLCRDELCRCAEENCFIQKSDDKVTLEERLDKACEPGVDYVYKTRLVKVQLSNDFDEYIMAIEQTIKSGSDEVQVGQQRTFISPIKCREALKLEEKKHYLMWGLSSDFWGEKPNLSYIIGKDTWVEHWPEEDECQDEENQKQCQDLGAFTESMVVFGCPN

GST: glutathione-S-transferase, fusion partner of r11bA, used as control [reference compound]
direct binding of EAiC3b to immobilized protein or peptide [1]: did not bind | effect of fluid-phase protein on biotinylated rNIF binding to human neutrophils [2]: not

Source: patent US20050227296A1, “Method for indentifying integrin antagonists” (The General Hospital Corporation, a Massachusetts …, priority 1988, published 2005)
